We go through 21 molecules from patent US20220378931A1 (Eli Lilly, published 2022).

Where a chain is given by its changes, count along the chain named.

What is called Ki is the dissociation constant of the complex between target and ligand, obtained from inhibition or displacement. The low end stands for a stronger hold on the target, the high end for a looser hold on the target.

B1: INS Analog 17 (other)
chain: FVSQHLCGSHLVEALRLVCGERGFFYTPKTGGGGGGGIVEQCCHSICSLYQLENYCGPGPAPGPAPGPAPGPAPGPAPGPAPGPAPGPAEVQLLESGGGLVQPGGSLRLSCAASGRYIDETAVAWFRQAPGKEREFVAGIGGGVDITYYADSVKGRFTISRDNSKNTLYLQMNSLRPEDTAVYYCAARPGRPLITSKVADLYPYWGQGTLVTVSSPP
notes: single-chain insulin B-L2-A-L1-VHH fusion; also called Ex. 17
B2: INS Analog 7 (other)
chain: B1 chain with R16Y, H44T
notes: single-chain insulin B-L2-A-L1-VHH fusion; also called Ex. 7
B3: INS Analog 13 (other)
chain: B1 chain with R16H, F25H, Y50E
notes: single-chain insulin B-L2-A-L1-VHH fusion; also called Ex. 13
B4: INS Analog 12 (other)
chain: B1 chain with R16H, F25H
notes: single-chain insulin B-L2-A-L1-VHH fusion; also called Ex. 12
B5: INS Analog 14 (other)
chain: B1 chain with H44T
notes: single-chain insulin B-L2-A-L1-VHH fusion; also called Ex. 14
B6: INS Analog 18 (other)
chain: B1 chain with F25H
notes: single-chain insulin B-L2-A-L1-VHH fusion; L1 is (PGPA)8; also called Ex. 18
B7: INS Analog 11 (other)
chain: B1 chain with R16H, Y50E
notes: single-chain insulin B-L2-A-L1-VHH fusion; also called Ex. 11
B8: INS Analog 2 (other)
chain: FVDQHLCGSHLVEALYLVCGERGFFYTPKTGGGGGGGIVEQCCTSICSLYQLENYCGPGPAPGPAPGPAPGPAPGPAPGPAPGPAPGPAEVQLLESGGGLVQPGGSLRLSCAASGRTVSSTAVAWFRQAPGKEREFVAGIGGSVDITYYADSVKGRFTISRDNSKNTLYLQMNSLRPEDTAVYYCAVRPGRPLITSRDANLYDYWGQGTLVTVSS
notes: single-chain insulin B-L2-A-L1-VHH fusion; also called Ex. 2
B9: INS Analog 19 (other)
chain: FVSQHLCGSHLVEALYLVCGERGFFYTPKTGGGGGGGIVEQCCTSICSLYQLENYCGGGGGQGGGGQGGGGQGGGGQGGGGQEVQLLESGGGLVQPGGSLRLSCAASGRYIDETAVAWFRQAPGKEREFVAGIGGGVDITYYADSVKGRFTISRDNSKNTLYLQMNSLRPEDTAVYYCAARPGRPLITSKVADLYPYWGQGTLVTVSSPP
notes: single-chain insulin B-L2-A-L1-VHH fusion; also called Ex. 19
B10: INS Analog 21 (other)
chain: B9 chain with Y16H, F25H, T44H
notes: single-chain insulin B-L2-A-L1-VHH fusion; also called Ex. 21
B11: INS Analog 16 (other)
chain: B1 chain with R16W, H44T
notes: single-chain insulin B-L2-A-L1-VHH fusion; also called Ex. 16
B12: INS Analog 9 (other)
chain: B1 chain with R16Y, F25H
notes: single-chain insulin B-L2-A-L1-VHH fusion; also called Ex. 9
B13: INS Analog 8 (other)
chain: B1 chain with R16Y, F25H, H44T
notes: single-chain insulin B-L2-A-L1-VHH fusion; also called Ex. 8
B14: INS Analog 10 (other)
chain: B1 chain with R16H, H44T
notes: single-chain insulin B-L2-A-L1-VHH fusion; also called Ex. 10
B15: INS Analog 15 (other)
chain: B1 chain with R16F, H44T
notes: single-chain insulin B-L2-A-L1-VHH fusion; also called Ex. 15
B16: INS Analog 20 (other)
chain: B1 chain with R16Y, H44T, A61Q, A65Q, A69Q, A73Q, A77Q, A81Q, A85Q, A89Q
notes: single-chain insulin B-L2-A-L1-VHH fusion; also called Ex. 20
B17: INS Analog 22 (other)
chain: B1 chain with R16H, F25H, A61Q, A65Q, A69Q, A73Q, A77Q, A81Q, A85Q, A89Q
notes: single-chain insulin B-L2-A-L1-VHH fusion; also called Ex. 22
B18: INS Analog 5 (other)
chain: B8 chain with D3N, Y16H
notes: single-chain insulin B-L2-A-L1-VHH fusion; also called Ex. 5
B19: INS Analog 3 (other)
chain: B8 chain with D3N, S9A
notes: single-chain insulin B-L2-A-L1-VHH fusion; also called Ex. 3
B20: INS Analog 4 (other)
chain: B8 chain with D3N, Y16E
notes: single-chain insulin B-L2-A-L1-VHH fusion; also called Ex. 4
B21: INS Analog 6 (other)
chain: B8 chain with D3N, F25H
notes: single-chain insulin B-L2-A-L1-VHH fusion; also called Ex. 6

One experiment has as its target T1, human insulin receptor isoform B with C-terminal C9 tag (human, UniProt P06213 28-1382).
T1 construct: membranes of stably transfected HEK293 cells; also called hIR-B; human IR-B
Put plainly: 125I-insulin competition SPA, hIR-B membranes, 0.001% NP-40. How it is done: (§1) The assays are performed with a SPA method using polyvinyltoluene (PVT) wheat germ agglutinin-coupled SPA beads (Perkin Elmer). Assay buffer contains 50 mM Tris-HCl, pH 7.5, 150 mM NaCl and either A) 0.1% w/v fatty-acid free BSA; B) 0.1% w/v fatty-acid free human serum albumin (HSA); C) 0.1% w/v rat serum albumin (RSA); or D) 0.001% Nonidet P-40 Substitute (NP-40, Roche Diagnostics). Ten-point concentration response curves using three-fold serial dilutions of test samples or controls are prepared in Assay Buffer using a Freedom/Evo robot (Tecan).
(§2) Percent specific inhibition (y-axis) is plotted versus the log concentration of compound (x-axis). […] Reported Ki values are shown as the geometric mean with the standard error (Delta Method Standard Error) and the number of independent replicate determinations used to calculate the geometric mean indicated by n.
B1 displayed a Ki of 0.0443 µM.

Turning to B2, the Ki came to 0.0454 µM. This Ki and that of the molecule before are within 1.5-fold of each other.

For the molecule B3, the Ki was 0.0392 µM.

B4 showed an inhibition constant (Ki) of 0.0428 µM.

B5: affinity was put at a Ki of 0.234 µM.

Consider B6, for which the Ki was found to be 0.134 µM. This Ki is about 1.7-fold lower than that of the molecule before.

On to B7, for which affinity was put at a Ki of 0.0811 µM.

The molecule B8 came in with a Ki of 0.0392 µM.

The target in a further experiment is T2, human insulin receptor isoform A with C-terminal C9 tag (human, UniProt P06213 28-1382).
T2 construct: membranes of stably transfected HEK293 cells; also called hIR-A; human IR-A
In words: 125I-insulin competition SPA, hIR-A membranes, 0.1% HSA. How it is done:
as §1, §2
B1: the Ki is 0.0313 µM.

B2 gave an inhibition constant (Ki) of 0.0363 µM.

B3 returned an inhibition constant Ki of 0.0346 µM. This Ki and that of the molecule before are within 1.5-fold of each other.

In turn, B4 yielded a Ki of 0.0423 µM.

With B5, the Ki was determined as 0.124 µM.

Turning to B6, the affinity corresponds to a Ki of 0.518 µM.

B7 registered a Ki of 0.0318 µM.

B8 came in with a Ki of 0.0319 µM. This Ki and that of the molecule before are within 1.5-fold of each other.

The target in a further experiment is T2, human insulin receptor isoform A with …. In words: 125I-insulin competition SPA, hIR-A membranes, 0.001% NP-40. Here is the method:
as §1, §2
Take B9: the inhibition constant (Ki) was found to be 0.0185 µM.

B10 had a Ki of 0.0083 µM.

In turn, B1 showed a Ki of 0.0313 µM.

With B2, the Ki was 0.0143 µM. Compared with the last molecule, the Ki is about 2.2-fold lower.

Molecule B3 gave an inhibition constant Ki of 0.0231 µM.

For B11, the inhibition constant Ki was 0.0431 µM.

As to B4, the inhibitory constant (Ki) was 0.025 µM.

The molecule B12 had an inhibitory constant (Ki) of 0.00667 µM.

B13 registered a Ki of 0.0473 µM.

Take B14: the Ki was 0.0201 µM.

In turn, B15 gave a Ki of 0.0131 µM. This Ki is about 1.5-fold lower than that of the molecule before.

With B5, the Ki was determined as 0.163 µM.

In the case of B16, the affinity, expressed as Ki, was 0.0185 µM.

Consider B17, for which the affinity corresponds to a Ki of 0.0171 µM.

In turn, B6 gave a Ki of 0.0895 µM.

Take B7: the inhibitory constant (Ki) was 0.0205 µM.

Molecule B8 yielded an inhibition constant (Ki) of 0.0451 µM.

Another experiment has the same target. In words: 125I-insulin competition SPA, hIR-A membranes, 0.1% BSA. How it is done: as §1, §2
B9 had a Ki of 0.0418 µM.

B10 displayed a Ki of 0.028 µM.

B1: the Ki was 0.0818 µM.

Turning to B2, the Ki turned out to be 0.0361 µM. This Ki lies about 2.3-fold lower than the previous one.

As to B3, the Ki was determined as 0.0603 µM. This Ki lies about 1.7-fold higher than the previous one.

In the case of B11, the inhibitory constant (Ki) stood at 0.046 µM.

Turning to B4, the Ki was 0.0379 µM.

As to B12, the Ki was 0.0117 µM.

In turn, B13 returned an inhibition constant (Ki) of 0.139 µM.

The molecule B14 returned an inhibition constant Ki of 0.146 µM.

The molecule B15 registered a Ki of 0.0392 µM.

With B5, the Ki was 0.282 µM.

For the molecule B16, the Ki was 0.0513 µM. Compared with the last molecule, the Ki is about 5.5-fold lower.

As to B17, the affinity corresponds to a Ki of 0.0597 µM.

B6 displayed an inhibition constant (Ki) of 0.204 µM.

In the case of B7, the Ki amounted to 0.036 µM.

B8 returned an inhibitory constant (Ki) of 0.0314 µM.

For B18, the affinity corresponds to a Ki of 0.057 µM.

As to B19, the Ki is 0.0452 µM. The Ki values of the last two molecules are within 1.5-fold of each other.

As to B20, the inhibitory constant (Ki) came to 0.591 µM.

B21 returned a Ki of 0.0655 µM.

A further experiment concerns the target T1, human insulin receptor isoform B with …. In words: 125I-insulin competition SPA, hIR-B membranes, 0.1% HSA. Here is the method: as §1, §2
In the case of B1, the affinity, expressed as Ki, was 0.102 µM.

B2 returned a Ki of 0.0471 µM.

Molecule B3 showed a Ki of 0.089 µM.

B4 returned a Ki of 0.0621 µM.

B5 registered an inhibition constant Ki of 0.447 µM. Compared with the last molecule, the Ki is about 7.2-fold higher.

Molecule B6 showed a Ki of 0.239 µM.

B7 had a Ki of 0.0954 µM.

In the case of B8, the Ki came out at 0.0297 µM. This Ki lies about 3.2-fold lower than the previous one.

The target is the same in the next experiment. Put plainly: 125I-insulin competition SPA, hIR-B membranes, 0.1% BSA. How it is done: as §1, §2
Take B1: affinity was put at a Ki of 0.11 µM. In other words, the sub-micromolar range.

For B2, the affinity corresponds to a Ki of 0.12 µM.

The molecule B3 yielded an inhibition constant Ki of 0.131 µM.

B4 displayed an inhibition constant (Ki) of 0.113 µM.

Consider B5, for which the affinity corresponds to a Ki of 0.378 µM.

In turn, B6 yielded a Ki of 0.299 µM.

Consider B7, for which the Ki was 0.164 µM.

As for B8, the affinity, expressed as Ki, was 0.056 µM.
